From patent publication US20050070694A1 (Eli Lilly, published 2005)

Tests used:
[1] = biological target: T1, recombinant soluble human TNFSF13b (hTNFSF13b) (human, UniProt Q9Y275 134-285); assay: BIAcore 2000 SPR at 25 C; antibody captured by anti-human IgG Fc, hTNFSF13b as analyte from 50 nM in 2-fold dilutions; Langmuir 1:1 model
T1 construct: Bought from RDI (Research Diagnostics Inc.) and described as amino acids 133-285; The printed soluble portion has 152 residues, one fewer than 133-285 implies; also called huTNFSF13b; BLyS

[2] = biological target: Chimera A (human TNFSF13b L139R, D140N) (human, UniProt Q9Y275 134-285); assay: cell-based or functional assay
[3] = biological target: Chimera B (human TNFSF13b K71P, T72I, Y73F) (human, UniProt Q9Y275 134-285); assay: cell-based or functional assay
[4] = biological target: Chimera E (human TNFSF13b E105K) (human, UniProt Q9Y275 134-285); assay: cell-based or functional assay
[5] = biological target: T1, recombinant soluble human TNFSF13b …; assay: cell-based or functional assay
[6] = biological target: Chimera D (human TNFSF13b L53V, K55R, E56Q) (human, UniProt Q9Y275 134-285); assay: cell-based or functional assay
murine TNFSF13b = biological target: T2, murine TNFSF13b (mouse, UniProt Q9WU72 127-309); assay: sandwich ELISA with 4A5-3.1.1-B4 as both capture and detecting mAb
T2 construct: Used as supernatants of CHO cells or 293 transfectants expressing murine TNFSF13b, and as purified protein; also called Mouse TNFSF13b; mouse TNFSF13b parent molecule
T2 sequence (Q9WU72 127-309 limits assumed): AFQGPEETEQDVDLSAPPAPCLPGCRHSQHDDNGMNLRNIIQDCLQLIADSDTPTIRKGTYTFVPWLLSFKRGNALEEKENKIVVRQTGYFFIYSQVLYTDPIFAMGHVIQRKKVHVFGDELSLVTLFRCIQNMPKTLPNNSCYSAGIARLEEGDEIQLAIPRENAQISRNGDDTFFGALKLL

Kd [1]: 38 pM
neutralization of proliferation, 11 ng/ml purified TNFSF13b, 1 ug/ml of 4A5-3.1.1-B4 [2]: 100%
neutralization of proliferation, 293 supernatants, 6 ug/ml of 4A5-3.1.1-B4 [2]: 100%
neutralization of proliferation, 11 ng/ml purified TNFSF13b, 1 ug/ml of 4A5-3.1.1-B4 [3]: 88%
neutralization of proliferation, 293 supernatants, 6 ug/ml of 4A5-3.1.1-B4 [3]: 100%
neutralization of proliferation, 293 supernatants, 6 ug/ml of 4A5-3.1.1-B4 [4]: 100%
neutralization of proliferation, 11 ng/ml purified TNFSF13b, 1 ug/ml of 4A5-3.1.1-B4 [5]: 100%
neutralization of proliferation, 293 supernatants, 6 ug/ml of 4A5-3.1.1-B4 [5]: 100%
neutralization of proliferation, 293 supernatants, 6 ug/ml of 4A5-3.1.1-B4 [6]: 100%
binding result (murine TNFSF13b): no binding
B1: human antibody 4A5-3.1.1-B4 (antibody, V domains shown)
VH: QVQLQQWGAGLLKPSETLSLTCAVYGGSFSGYYWSWIRQPPGKGLEWIGEINHSGSTNYNPSLKSRVTISVDTSKNQFSLKLSSVTAADTAVYYCARGYYDILTGYYYYFDYWGQGTLVTVSS
VL: EIVLTQSPATLSLSPGERATLSCRASQSVSRYLAWYQQKPGQAPRLLIYDASNRATGIPARFSGSGSGTDSTLTISSLEPEDFAVYYCQQRSNWPRTFGQGTKVEIKR
notes: Hybridoma-derived human monoclonal antibody from HuMAb mice, with a human kappa light chain; also called 4A5 mAb; 4A5-3.1.11-B4
